First the molecules themselves.
B1: anti-mTIGIT nanobody 16966 (VHH)
VHH: QVQLQESGGGSVRPGESLRLSCAASSDSSITGMDWYRQAPGKQREWVATITRNNITIYGASVKGRFTVSRDNVKNTWYLQMNSLKPEDTAVYYCTYRGNWGQGTQVTVSS
notes: Cloned into pHen6 after PCR with primers A6E and PMCF; labelled with 99mTc on the His6 tag for the in vivo work; also called Nb 16966; source: E. coli WK6, periplasmic extract, purified (Ni-NTA, SEC); not shown: His6, C-terminal, kept
B2: anti-mTIGIT nanobody 16988 (VHH)
VHH: QVQLQESGGGLVQAGGSLRLSCAASSVSSITGMDWYRQAPGKQREWVATITRNNIAMYGASVKGRFTVSRDDAKNTWYLQMNSLKPEDTAVYYCTYHGNWGQGTQVTVSS
notes: Cloned into pHen6 after PCR with primers A6E and PMCF; labelled with 99mTc on the His6 tag for the in vivo work; also called lead anti-mTIGIT Nb; source: E. coli WK6, periplasmic extract, purified (Ni-NTA, SEC); not shown: His6, C-terminal, kept
B3: anti-mTIGIT nanobody 16972 (VHH)
VHH: QVQLQESGGGLVQTGESLRLSCAASSVSSITGMDWYRQAPGKQREWVATITRNNIAMYGASVKGRFTVSRDNAKNTWYLQMNSLKPEDTAVYYCTYRGNWGQGTQVTVSS
notes: Cloned into pHen6 after PCR with primers A6E and PMCF; also called Nb 16972; source: E. coli WK6, periplasmic extract, purified (Ni-NTA, SEC); not shown: His6, C-terminal, kept
B4: anti-hTIGIT nanobody 17010 (VHH)
VHH: QVQLQESGGGSVQTGGSLRLSCAASNGFSINAMGWYRQSPGKQRELVARITSGSSTNYTNYADSVKGRFTISRDNAKNTGYLEMNLLKPEDTAVYYCHADVLLGGLQGLIQRFWGQGTQVTVSS
notes: Cloned into pHen6 after PCR with primers A6E and PMCF; also called Nb 17010; source: E. coli WK6, periplasmic extract, purified (Ni-NTA, SEC); not shown: His6, C-terminal, kept
B5: single-chain variable fragment derived from the monoclonal antibody Vibostolimab (scFv, V domains shown)
VH: EVQLVQSGAEVKKPGSSVKVSCKASGYTFSSYVMHWVRQAPGQGLEWIGYIDPYNDGAKYAQKFQGRVTLTSDKSTSTAYMELSSLRSEDTAVYYCARGGPYGWYFDVWGQGTTVTVSS
VL: DIQMTQSPSSLSASVGDRVTITCRASEHIYSYLSWYQQKPGKVPKLLIYNAKTLAEGVPSRFSGSGSGTDFTLTISSLQPEDVATYYCQHHFGSPLTFGQGTRLEIK
notes: VH of the mAb Vibostolimab (Merck); (G4S)3 linker, written out from the printed formula; VL of the mAb Vibostolimab (Merck); Cloned into pHen6 by Gibson assembly; also called scFv Vibo; Vibo scFv; source: E. coli WK6, periplasmic extract, purified (Ni-NTA, SEC), produced in the same way as the Nbs; not shown: His6, C-terminal, kept
B6: anti-hTIGIT nanobody 16920 (VHH)
VHH: QVQLQESGGGFVQAGGSLRLSCAASSISSIYAMDWYRQAPGKQREFVAGITSGGTTNYGSTVKGRFTISRDESKNTVDLQMNSLKPEDSAVYVCRATISWKIYSGQGTQVTVSS
notes: Cloned into pHen6 after PCR with primers A6E and PMCF; source: E. coli WK6, periplasmic extract, purified (Ni-NTA, SEC); not shown: His6, C-terminal, kept
B7: anti-hTIGIT nanobody 17037 (VHH)
VHH: QVQLQESGGGLVQAGGSLRLSCAASSTLSIDDMGWYRQAPEKHREFVATISRGGSTNYAASVKGRFTISRDNAKNTVFLQMNNLKSEDTAVYYCRATSTWRYYWAQGTQVTVSS
notes: Cloned into pHen6 after PCR with primers A6E and PMCF; also called Nb 17037; source: E. coli WK6, periplasmic extract, purified (Ni-NTA, SEC); not shown: His6, C-terminal, kept
B8: anti-hTIGIT nanobody 17018 (VHH)
VHH: QVQLQESGGGLVQAGGSLRLSCTASSIFSINAMGWYRQTPGKQRELVARITNGSSTNYADSVKGRFTISRDNAKNTVYLQMNSLKPEDTAVYYCHTDLLLEVGAMRYWGQGTQVTVSS
notes: Cloned into pHen6 after PCR with primers A6E and PMCF; also called Nb 17018; source: E. coli WK6, periplasmic extract, purified (Ni-NTA, SEC); not shown: His6, C-terminal, kept
B9: anti-hTIGIT nanobody 16925 (VHH)
VHH: QVQLQESGGGLVQAGGSLRLSCAASSISSINAMGWYRQPPGKQRELVARITFGHSTNYADSVKGRFTISRDNAKSTVYLQMNSLKPEDTAVYYCNADLLLNTQAIRAWGQGTQVTVSS
notes: Cloned into pHen6 after PCR with primers A6E and PMCF; labelled with 99mTc on the His6 tag for the in vivo work; also called lead hTIGIT Nb; source: E. coli WK6, periplasmic extract, purified (Ni-NTA, SEC); not shown: His6, C-terminal, kept
B10: anti-mTIGIT Nb 16972 (VHH)
VHH: QVQLQESGGGLVQTGESLRLSCAASSVSSITGMDWYRQAPGKQREWVATITRNNIAMYGASVKGRFTVSRDNAKNTWYLQMNSLKPEDTAVYYCTYRGNWGQGTQVTVSS
notes: nanobody from an immunized llama; Cloned in pHen6 after PCR with primers A6E and PMCF; source: E. coli WK6, periplasmic extract, purified (Ni-NTA, SEC); not shown: His6, C-terminal, kept
B11: anti-mTIGIT Nb 16966 (VHH)
VHH: QVQLQESGGGSVRPGESLRLSCAASSDSSITGMDWYRQAPGKQREWVATITRNNITIYGASVKGRFTVSRDNVKNTWYLQMNSLKPEDTAVYYCTYRGNWGQGTQVTVSS
notes: as for B10
B12: anti-mTIGIT Nb 16988 (VHH)
VHH: QVQLQESGGGLVQAGGSLRLSCAASSVSSITGMDWYRQAPGKQREWVATITRNNIAMYGASVKGRFTVSRDDAKNTWYLQMNSLKPEDTAVYYCTYHGNWGQGTQVTVSS
notes: as for B10
B13: anti-mTIGIT Nb 16979 (VHH)
VHH: QVQLQESGGGLVQAGESLRLSCAASIIVSDNIMAWYRQSPGKQREIVALISSTGTINYVDSVKGRFTISRDNAKNTLNLQMTKLKPEDTAVYYCSGRTLRVYWGQGTQVTVSS
notes: as for B10
B14: anti-hTIGIT Nb 17010 (VHH)
VHH: QVQLQESGGGSVQTGGSLRLSCAASNGFSINAMGWYRQSPGKQRELVARITSGSSTNYTNYADSVKGRFTISRDNAKNTGYLEMNLLKPEDTAVYYCHADVLLGGLQGLIQRFWGQGTQVTVSS
notes: as for B10
B15: single-chain variable fragment derived from the monoclonal antibody Vibostolimab (scFv, V domains shown)
VH: EVQLVQSGAEVKKPGSSVKVSCKASGYTFSSYVMHWVRQAPGQGLEWIGYIDPYNDGAKYAQKFQGRVTLTSDKSTSTAYMELSSLRSEDTAVYYCARGGPYGWYFDVWGQGTTVTVSS
VL: DIQMTQSPSSLSASVGDRVTITCRASEHIYSYLSWYQQKPGKVPKLLIYNAKTLAEGVPSRFSGSGSGTDFTLTISSLQPEDVATYYCQHHFGSPLTFGQGTRLEIK
notes: variable domain of the heavy chain (VH) of Vibostolimab (Merck); (G4S)3 linker; variable domain of the light chain (VL) of Vibostolimab (Merck); Cloned in pHen6; also called ScFv Vibo; Vibo scFv; source: E. coli WK6, periplasmic extract, purified (Ni-NTA, SEC), produced in the same way as the Nbs; not shown: His6, C-terminal, kept
B16: anti-hTIGIT Nb 16920 (VHH)
VHH: QVQLQESGGGFVQAGGSLRLSCAASSISSIYAMDWYRQAPGKQREFVAGITSGGTTNYGSTVKGRFTISRDESKNTVDLQMNSLKPEDSAVYVCRATISWKIYSGQGTQVTVSS
notes: as for B10
B17: anti-hTIGIT Nb 17037 (VHH)
VHH: QVQLQESGGGLVQAGGSLRLSCAASSTLSIDDMGWYRQAPEKHREFVATISRGGSTNYAASVKGRFTISRDNAKNTVFLQMNNLKSEDTAVYYCRATSTWRYYWAQGTQVTVSS
notes: as for B10
B18: anti-hTIGIT Nb 17018 (VHH)
VHH: QVQLQESGGGLVQAGGSLRLSCTASSIFSINAMGWYRQTPGKQRELVARITNGSSTNYADSVKGRFTISRDNAKNTVYLQMNSLKPEDTAVYYCHTDLLLEVGAMRYWGQGTQVTVSS
notes: as for B10
B19: anti-hTIGIT Nb 16925 (VHH)
VHH: QVQLQESGGGLVQAGGSLRLSCAASSISSINAMGWYRQPPGKQRELVARITFGHSTNYADSVKGRFTISRDNAKSTVYLQMNSLKPEDTAVYYCNADLLLNTQAIRAWGQGTQVTVSS
notes: as for B10

In paper PMC10548220, “Development and evaluation of nanobody tracers for noninvasive nuclear imaging of the immune-checkpoint TIGIT” (Frontiers in Immunology, 2023) one finds Kd, koff and kon data, which are given here for 20 molecules.

As usually defined, the Kd is the constant that tells how readily two partners part at equilibrium. What is called koff is the first-order rate constant of dissociation. Broadly, the kon is a measure of how fast the partners come together.

Sequence of recombinant mouse TIGIT-Fc carrier-free protein (mouse) (P86176 29-148): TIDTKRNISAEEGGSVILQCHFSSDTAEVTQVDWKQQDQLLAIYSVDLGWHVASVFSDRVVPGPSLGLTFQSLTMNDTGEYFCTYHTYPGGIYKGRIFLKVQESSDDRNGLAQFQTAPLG

The first experiment has as its target T1, recombinant mouse TIGIT-Fc carrier-free protein (Mus musculus, UniProt A0A0B4J1G6).
T1 construct: T cell Ig and ITIM domain receptor (TIGIT), mouse; also called mTIGIT-Fc; recombinant mTIGIT; source: bought: Biolegend
The experiment can be described thus: SPR; Biacore T200; recombinant m/hTIGIT-Fc immobilised on a CM5 chip; Nbs injected, eight two-fold dilutions from 200 nM, 10 µl/min, 25°C; HBS pH 7.4 (0.01 M HEPES, 0.15 M NaCl, 3 mM EDTA, 0.005% Tween 20); fit 1:1 binding with drift and RI2. Conditions: both partners purified. On the technique in general: SPR reads the build-up and loss of mass on a sensor chip optically.
T1 sequence (P86176 29-148): as above
For the molecule B1, the Kd was found to be 157 ± 1 pM.

For B2, the Kd was 104 ± 1 pM.

For B3, the Kd came to 152 ± 1 pM.

For the next experiment, the target named is T2, recombinant human TIGIT-Fc carrier-free protein (Homo sapiens (Human)., UniProt Q495A1).
T2 construct: T cell Ig and ITIM domain receptor (TIGIT), human; also called hTIGIT-Fc; recombinant hTIGIT; source: bought: Biolegend
T2 sequence (Q495A1 22-141): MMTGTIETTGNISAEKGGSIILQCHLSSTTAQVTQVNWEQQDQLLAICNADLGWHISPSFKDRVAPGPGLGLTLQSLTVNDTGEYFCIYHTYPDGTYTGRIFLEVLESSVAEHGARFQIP
The description is as above. The settings on record: both partners purified.
On to B4, for which the equilibrium dissociation constant (Kd) is 345 ± 1 pM.

With B5, the Kd is 996 ± 4 pM.

B6: the Kd was found to be 753 ± 2 pM.

For B7, the Kd was determined as 116 ± 1 pM.

For B8, the Kd stood at 470 ± 2 pM.

Regarding B9, the Kd was 1974 ± 4 pM.

A further experiment has as its target T3, recombinant mouse TIGIT-Fc carrier-free protein (Mus musculus, UniProt A0A0B4J1G6).
T3 construct: T cell Ig and ITIM domain receptor (TIGIT), mouse; also called mTIGIT-Fc; mouse TIGIT recombinant protein; source: bought: Biolegend (Cat. No. 771808)
The experiment in a line: SPR; Biacore T200; m/hTIGIT-Fc (10 µg/mL in 10 mM Na-acetate pH 4.0) immobilised on a CM5 chip; Nbs or scFv injected in two-fold dilutions from 200 nM, 10 µl/min, 25°C; HBS pH 7.4 (0.01 M HEPES, 0.15 M NaCl, 3 mM EDTA, 0.005% Tween 20); fit 1:1 binding with drift and RI2. Conditions: both partners purified.
T3 sequence (P86176 29-148): as the sequence (P86176 29-148) above
In the case of B10, the koff worked out at 0.00113 s⁻¹ and the kon turned out to be 7.46e+06 M⁻¹ s⁻¹.

In the case of B11, the koff came to 0.00257 s⁻¹ and the kon was 1.64e+07 M⁻¹ s⁻¹.

As for B12, the koff stood at 0.000738 s⁻¹ and the kon amounted to 7.06e+06 M⁻¹ s⁻¹.

Regarding B13, the koff came to 0.114 s⁻¹ and the kon was found to be 134000 M⁻¹ s⁻¹.

The target in the next experiment is T4, recombinant human TIGIT-Fc carrier-free protein (Homo sapiens (Human)., UniProt Q495A1-1).
T4 construct: T cell Ig and ITIM domain receptor (TIGIT), human; also called hTIGIT-Fc; human TIGIT recombinant protein; source: bought: Biolegend (Cat. No. 768608)
T4 sequence (Q495A1 22-141): as the sequence (Q495A1 22-141) above
The description is as above. Conditions: both partners purified.
Turning to B14, the koff worked out at 0.000803 s⁻¹ and the kon is 2.33e+06 M⁻¹ s⁻¹.

For B15, the koff came out at 0.000827 s⁻¹ and the kon amounted to 830000 M⁻¹ s⁻¹.

In the case of B16, the koff came to 0.00426 s⁻¹ and the kon is 5.66e+06 M⁻¹ s⁻¹.

Turning to B17, the koff was found to be 0.00157 s⁻¹ and the kon turned out to be 1.36e+07 M⁻¹ s⁻¹.

With B18, the koff worked out at 0.000496 s⁻¹ and the kon was determined as 1.06e+06 M⁻¹ s⁻¹.

As for B19, the koff came out at 0.000911 s⁻¹ and the kon amounted to 462000 M⁻¹ s⁻¹.

Another experiment addresses recombinant mouse TIGIT-Fc carrier-free protein (mouse) (UniProt P86176). The experiment can be described thus: SPR; Biacore T200; recombinant m/hTIGIT-Fc immobilised on a CM5 chip; Nbs injected, eight two-fold dilutions from 200 nM, 10 µl/min, 25°C; HBS pH 7.4 (0.01 M HEPES, 0.15 M NaCl, 3 mM EDTA, 0.005% Tween 20); fit 1:1 binding with drift and RI2.
Details: not given
On to B13, for which the Kd was 846000 pM.

The target in a further experiment is CD155 (Homo sapiens) (UniProt P15151).
Sequence of CD155 (Homo sapiens) (P15151 21-343): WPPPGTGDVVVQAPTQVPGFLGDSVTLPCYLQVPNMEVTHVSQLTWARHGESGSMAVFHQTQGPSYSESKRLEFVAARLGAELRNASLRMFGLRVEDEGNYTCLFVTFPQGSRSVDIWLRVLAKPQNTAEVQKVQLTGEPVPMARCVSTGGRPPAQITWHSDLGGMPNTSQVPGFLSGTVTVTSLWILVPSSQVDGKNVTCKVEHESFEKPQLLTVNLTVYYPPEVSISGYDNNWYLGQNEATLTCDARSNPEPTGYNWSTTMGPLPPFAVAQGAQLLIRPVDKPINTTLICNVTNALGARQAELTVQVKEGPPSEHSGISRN
Assay: not given
The settings on record: cited from earlier work.
Take TIGIT (from UniProt Q495A1): the Kd was 2000 pM.
